Experimental data published in PMC10894068.

How the values were obtained:
Experiment in all cases: BLI
USP37(700-851) (human) = USP37(700-851) (human) (UniProt Q86T82)
UIMC1(76-128) (human) = UIMC1(76-128) (human) (UniProt Q96RL1)
AN13A(479-594) (human) = molecular target: AN13A(479-594) (human)

Chain of UniProt Q86T82 (Q86T82 700-851): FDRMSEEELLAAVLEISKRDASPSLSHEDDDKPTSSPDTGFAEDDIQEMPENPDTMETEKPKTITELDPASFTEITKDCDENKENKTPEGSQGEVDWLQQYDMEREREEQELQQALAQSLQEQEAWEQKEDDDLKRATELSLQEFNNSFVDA
Chain of UniProt Q96RL1 (Q96RL1 76-128): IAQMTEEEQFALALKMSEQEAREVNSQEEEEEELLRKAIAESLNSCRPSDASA

Kd (USP37(700-851) (human)) | Kd (UIMC1(76-128) (human)) | Kd (AN13A(479-594) (human)) | Substance
8.89 µM | 2.92 µM | 1.28 µM | K11-diUb (from UniProt P0CG47 1-76) (complex)
 |  | 7.83 µM | K11/K48-triUb-(1,0) (triUb-NC(1,0)) (from UniProt P0CG47 1-75; P0CG47 1-76; P0CG47 1-76) (complex)
3.36 µM | 1.04 µM | 0.43 µM | K11/K63-triUb-(1,0) (triUb-NC(1,0)) (from UniProt P0CG47 1-75; P0CG47 1-76; P0CG47 1-76) (complex)
2.71 µM | 2.43 µM | 0.74 µM | K63/K48-triUb-(1,0) (triUb-NC(1,0)) (from UniProt P0CG47 1-75; P0CG47 1-76; P0CG47 1-76) (complex)
4.97 µM | 2.17 µM | 0.25 µM | K63-diUb containing a native linkage (from UniProt P0CG47 1-76) (complex)
